Experiments:
[1] = molecular target: T1, GST-CCA1 (… CLOCK-ASSOCIATED1) (Arabidopsis thaliana, UniProt P92973 1-608); assay: competition (EMSA); 100x unlabeled competitor vs FITC-pFER; EMSA: 100 mM Tris-HCl pH 8.0, 5 mM DTT, 2.5 mM EDTA, 0.25% Triton X-100, 25% glycerin; competitor 15 min then probe 20 min; 4% native PAGE, 0.5x TBE; temperature not stated; conditions: protein: recombinant; label: none; blunt
[2] = molecular target: T1, GST-CCA1 (… CLOCK-ASSOCIATED1); assay: EMSA; 20 fmol probe, 5 ug protein; EMSA: 100 mM Tris-HCl pH 8.0, 5 mM DTT, 2.5 mM EDTA, 0.25% Triton X-100, 25% glycerin; competitor 15 min then probe 20 min; 4% native PAGE, 0.5x TBE; temperature not stated; conditions: protein: recombinant; label: FITC on strand 1 (S35; printed after its 3' end); blunt
[3] = molecular target: T1, GST-CCA1 (… CLOCK-ASSOCIATED1); assay: competition (EMSA); 100x unlabeled competitor vs FITC-pFER; did not compete; EMSA: 100 mM Tris-HCl pH 8.0, 5 mM DTT, 2.5 mM EDTA, 0.25% Triton X-100, 25% glycerin; competitor 15 min then probe 20 min; 4% native PAGE, 0.5x TBE; temperature not stated; conditions: protein: recombinant; label: none; blunt

T1 sequence (P92973 whole entry): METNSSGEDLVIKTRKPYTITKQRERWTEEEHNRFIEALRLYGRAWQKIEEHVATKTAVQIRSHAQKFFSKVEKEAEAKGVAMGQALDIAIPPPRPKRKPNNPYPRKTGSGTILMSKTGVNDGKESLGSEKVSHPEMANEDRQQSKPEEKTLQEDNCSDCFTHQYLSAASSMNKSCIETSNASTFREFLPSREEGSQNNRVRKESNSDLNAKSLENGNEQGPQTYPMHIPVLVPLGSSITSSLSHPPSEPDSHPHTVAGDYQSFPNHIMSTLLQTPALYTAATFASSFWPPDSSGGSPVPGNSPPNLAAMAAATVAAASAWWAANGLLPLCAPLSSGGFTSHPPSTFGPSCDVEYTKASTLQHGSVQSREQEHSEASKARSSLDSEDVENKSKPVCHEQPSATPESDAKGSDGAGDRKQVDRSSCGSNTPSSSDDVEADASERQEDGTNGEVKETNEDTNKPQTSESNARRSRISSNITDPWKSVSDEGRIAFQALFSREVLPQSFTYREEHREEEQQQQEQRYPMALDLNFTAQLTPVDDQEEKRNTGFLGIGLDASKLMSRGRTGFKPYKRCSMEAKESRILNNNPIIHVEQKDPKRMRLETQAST

B1: pFER competitor A (unlabeled WT) (dsDNA)
DNA 1: TCTCCCCCAAAATATCTCTGTCTTC
DNA 2: GAAGACAGAGATATTTTGGGGGAGA
binding result [1]: binds

B2: pFER probe (EE element), FITC (dsDNA)
DNA 1: TCTCCCCCAAAATATCTCTGTCTTC
DNA 2: GAAGACAGAGATATTTTGGGGGAGA
binding result [2]: binds

B3: pFER-Mutant competitor B (AAATATCT to GGGGGGGG) (dsDNA)
DNA 1: TCTCCCCCAGGGGGGGGCTGTCTTC
DNA 2: GAAGACAGCCCCCCCCTGGGGGAGA
binding result [3]: no binding
